Here are results for ten molecules from patent publication US20220396632A1 (VERSEAU THERAPEUTICS, published 2022).

No end group written: not given here. *: point of attachment. Biotin = O=C1N[C@H]2[C@H](CS[C@H]2CCCCC(=O)*)N1 Bounds are passed on as bounds.

Assay [1] deals with T1, Biotin PSGL-1(56-70) peptide (human).
T1 peptide: Ac-ETEPPEMLRNSTDTTGK(Biotin)
The experiment in a line: ELISA, plate-bound biotin peptide. A general note: An ELISA detects its analyte on a solid surface through an enzyme-linked reagent.

Assay [2] deals with T2, Biotin PSGL-1(42-62) peptide, unmodified (human, C-terminal Lys-biotin).
T2 construct: Residues 42-62 followed by GGGK-biotin; also called WT; wild-type
T2 peptide: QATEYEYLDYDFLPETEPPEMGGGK
The experiment in a line: ELISA, plate-bound peptide.

Assay [3] has as its target T3, Biotin sY51 PSGL-1(42-62) peptide (human, sulfotyrosine at Y51; C-terminal Lys-biotin).
T3 construct: also called Y51(SO3) PSGL-1(42-62)
T3 peptide: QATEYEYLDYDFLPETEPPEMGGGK
As to the kind of experiment: capture ELISA; against 3 x sY peptide. On the procedure:
(§1) Two ELISA methods were performed. One procedure detected mAb binding to its plate-immobilized target and the other measured the immobilized antibody's ability to capture biotinylated PSGL-1₄₂₋₆₂. […] The plate was incubated for 45 min at 37° C. Plates were washed 3 times with wash buffer (PBS containing 0.05% tween 20, pH 7.4) and a single concentration (2 to 500 nM) or serially diluted (0.002-100 nM) anti-PSGL-1 mAb was added (25 ul/well) in assay buffer into appropriate wells. The plate was incubated for 45 min at 37° C., washed 3 times, and an appropriate HRP-conjugated secondary antibody added (25 ul/well) (HRP goat anti-mouse or anti-human IgG). After 45 min incubation at 37° C., the plate was washed, and antibody bound to plate-immobilized target was determined at A450 nm using HRP substrate (3,3′,5,5′-etramethylbenzidine (TMB)). For each antibody, duplicate values were averaged and assay background was subtracted. Except for the following, ELISAs involving plate-immobilized mAb capturing of biotinylated PSGL-1₄₂₋₆₂ peptides was performed in the same manner as described above: 3 ug/mL/25 ul per well of mAb was coated directly onto microtiter plate wells; biotinylated unmodified or sulfotyrosine PSGL-1₄₂₋₆₂ was serially diluted (3 nM-3 uM) into appropriate wells, and antibody-bound peptide was detected using HRP-streptavidin (Jackson Immunoresearch, Cat. #016-030-084).

Assay [4] deals with T4, Biotin sY48 PSGL-1(42-62) peptide (human, sulfotyrosine at Y48; C-terminal Lys-biotin).
T4 construct: also called sY48S
T4 peptide: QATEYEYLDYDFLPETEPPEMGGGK
As to the kind of experiment: capture ELISA; against 3 x sY peptide. On the procedure:
as §1

The target in assay [5] is T5, Biotin Y46,48,51(SO3) PSGL-1(42-62) peptide (human, sulfotyrosine at Y46, Y48 and Y51; C-terminal Lys-biotin).
T5 construct: also called fully sulfated N-terminal PSGL-1 peptide
T5 peptide: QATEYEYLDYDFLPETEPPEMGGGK
The experiment in a line: capture ELISA; against 3 x sY peptide. The protocol: as §1

Assay [6] concerns the target T6, Biotin sY46 PSGL-1(42-62) peptide (human, sulfotyrosine at Y46; C-terminal Lys-biotin).
T6 peptide: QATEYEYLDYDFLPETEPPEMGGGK
The experiment in a line: capture ELISA; against 3 x sY peptide. On the procedure:
as §1

In assay [7] the target is PSGL-1(ECD)-hFc1 I121A protein (Sino Biological) (human). As to the kind of experiment: ELISA; against WT PSGL-1(ECD)-hFc1. The protocol:
(§2) A typical ELISA experiment involved binding of a single concentration or serially diluted mAb in assay buffer (3% BSA in PBS containing 0.05% Tween®20, pH 7.4) onto BSA blocked high binding microtiter plate half-wells (Corning Cat. #3690), which contained PSGL-1 protein or streptavidin-immobilized biotin peptide. After incubation for 45 min. at 37° C., the plate was washed 3 times with wash buffer (PBS containing 0.05% Tween®20, pH 7.4), and an appropriate HRP-conjugated secondary antibody added (25 ul/well) (HRP goat anti-mouse or anti-human IgG). After 45 min. incubation at 37° C., the plate was washed and antibody bound to plate-immobilized target was determined at A450 nm using HRP substrate (3,3′5,5′-tetramethylbenzidine (TMB)). For each antibody, duplicate values were averaged and assay background subtracted.

Assay [8] concerns the target PSGL-1(ECD)-hFc1 S116A protein (Sino Biological) (human). The experiment in a line: ELISA; against WT PSGL-1(ECD)-hFc1. On the procedure:
as §2

For assay [9], the target named is PSGL-1(ECD)-hFc1 M119A protein (Sino Biological) (human). As to the kind of experiment: ELISA; against WT PSGL-1(ECD)-hFc1. The protocol:
as §2

Assay [10] has as its target T7, Recombinant human PSGL-1(ECD)-hFc1 (R&D Systems, Cat. 3345-PS) (human, UniProt Q14242 42-305).
T7 construct: Bought; Gln42-Val295 counted on AAC50061; also called PSGL-1-Fc; PSGL-1-hFc1 chimera; not shown: human IgG1 Fc, Pro100-Lys330
T7 sequence: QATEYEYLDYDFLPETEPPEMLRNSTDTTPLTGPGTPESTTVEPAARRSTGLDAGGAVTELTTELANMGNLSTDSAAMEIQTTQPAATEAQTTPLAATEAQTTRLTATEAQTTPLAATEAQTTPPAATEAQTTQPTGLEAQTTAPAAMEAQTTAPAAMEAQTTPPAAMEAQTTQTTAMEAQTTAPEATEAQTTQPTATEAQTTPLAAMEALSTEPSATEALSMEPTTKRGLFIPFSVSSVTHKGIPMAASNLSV
The experiment in a line: Octet tandem; competitor 19J23. On the procedure:
Antibody binning was performed by ForteBio Octet® using a tandem assay format, with anti-human IgG biosensor-immobilized PSGL-1(ECD)-hFc1 protein, binding of competitor mAb followed by analyte antibody. As competition controls, the same antibody was competed against itself, and mAb competition was performed bidirectionally.
Antibody binning by tandem octet was performed by immobilizing 10 ug/mL PSGL-1(ECD)-hFc1 (R&D Systems, Cat. #3345-PS) in PBS, pH 7.4, onto anti-human IgG capture biosensors (ForteBio, Cat. #18-5060), binding of 100 nM competitor antibody for 300 sec., followed by binding of 100 nM of analyte mAb for 300 s in kinetic buffer (0.1% BSA in PBS containing 0.02% tween 20 and 0.05% sodium azide, pH 7.4). Synagis (Johnson et al. (1997) J. Infect. Dis. 176:1215-1224) served as a negative control mAb for competition. An Fc quench step (0.25 mg/mL human IgG Fcl; BioXcell, Cat. #BE0096, in kinetic buffer) was included when human mAbs were tested to prevent high background from the antibodies binding to the anti-human IgG biosensor. Biosensor regeneration buffer consisted of 10 mM glycine, pH 2.0.
For orientation: BLI is a label-free optical method that tracks binding on a fibre tip over time.

The target of assay [11] is T8, Biotin PSGL-1(42-62) Y51A peptide (C-terminal Lys-biotin).
T8 peptide: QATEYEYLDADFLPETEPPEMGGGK
The experiment in a line: ELISA, streptavidin-bound Ala peptide.

The target in assay [12] is T2, Biotin PSGL-1(42-62) peptide, unmodified. The experiment in a line: ELISA, plate-bound mAb captures biotin peptide. On the procedure: as §1

B1: 5E12 (antibody, V domains shown)
VH: EIQLQQSGAELVRPGASVKLSCTASGFNIKDDYIHWVKQRPEQGLEWIGRIDPANGNTKSAPKFQDKATITADTSSNTAYLHLSSLTSEDTAVYYCSIRFAYWGQGTLVTVSA
VL: DVVMTQTPLSLSVSLGDQASISCRSSQSLVYRNGDTYLHWFLQKPGQSPKLLIYKVSNRFSGVPDRFSGSGSGTDFTLKISRVEAEDLGIYFCSQNTHVPYTFGGGTKLEIK
notes: Mouse hybridoma mAb; only variable domains given
For B1, the binding result in assay [1] is reported as “binds”.

B2: 10F01 (antibody, IgG4, V domains shown)
VH: EVQLVQSGGGLVQPGGSLRLSCAASGFTFSSYAMSWVRQAPGKGLEWVSALRGGDGGTYHADSVKGRFTISGDSSKNTLYLQMNSLRAEDTAVYYCARRMVGAAYAFDIWGQGTMVTVSS
VL: LPVLTQPHSVSESPGKTVTISCTRSSGSIADNFVQWYRQRPGSAPTTVIYEGDQRPSGVPGRFSGSIDSSSNSASLTISGLQTDDEADYYCQSFDSYNRRTHVVFGGGTKLTVL
On to B2, for which, in [2], the “fold weaker binding than to sulfotyrosine PSGL-1 42-62” value was above 500 fold. The “EC50/EC50 3x(SO3)Y” value in assay [3] is around 36 fold; in assay [4], around 2000 fold; in assay [5], 1 fold; in assay [6], around 2000 fold.

B3: 2E12 (antibody, V domains shown)
VH: QVQLQQSGAELARPGASVKLSCKASGYTFTNYGLNWVKQRTGQGLEWIGEIYPRSGNTYYNEKFKGKATLTADKSSSTAYMQLSSLTSEDSAVYFCATEGAYWGQGTLVTVSA
VL: DIVMTQTPLTLSVTIGQPASISCKSSQSLLHGNGKTYLNWLLQRPGQSPKLLIYLVSKLESGIPDRFSGSGSGTDFTLEISRVEAEDLGIYYCLQSTHFPRTFGGGTKLEIK
notes: as for B1
In the case of B3, the binding result in assay [1] is on record as “binds”.

B4: 18K07 (antibody, V domains shown)
VH: QIQLVQSGPELKKPGETVKISCEASGYTFTTYGMNWVKQAPGKGLKWMGWINTYSGVPTYADDFQGRFAFSVETSATTAYLQINNLKNEDAATYFCARSDDTYYGFAYWGQGTLVTVSA
VL: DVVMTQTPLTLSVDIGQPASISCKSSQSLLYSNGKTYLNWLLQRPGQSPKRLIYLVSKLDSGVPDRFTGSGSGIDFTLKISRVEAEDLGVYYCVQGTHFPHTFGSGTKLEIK
notes: From mouse immunisation; only variable domains given
With B4, the EC50/EC50WTprot in assay [7] stood at 0.89 fold; in [8], 1.02 fold; in assay [9], 0.81 fold. The “% binding of analyte mAb” value in [10] amounted to 92.9%.

B5: 16E17 (antibody, V domains shown)
VH: QIQLVQSGPELKKPGETVKISCKASGYAFTTYGMSWVKQAPGKGLKWMGWINTYSGVPKYADDFKGRFAFSLETSASTAYLHINNLKNEDTATYFCGRHYYGSSYFDYWGQGTTLTVSS
VL: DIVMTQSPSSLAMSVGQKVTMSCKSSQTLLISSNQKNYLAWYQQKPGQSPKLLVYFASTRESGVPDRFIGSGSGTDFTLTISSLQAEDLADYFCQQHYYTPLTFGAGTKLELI
notes: as for B4
In the case of B5, the EC50/EC50WTprot is 2.8 fold in [7], 1.45 fold in [8] and 1.58 fold in assay [9]. For the same molecule, the “% binding of analyte mAb” value in [10] was 103%.

B6: 19L04 (antibody, IgG4, V domains shown)
VH: QIQLVQSGPELKKPGETVKISCKASGYTFTTYGMSWVKQAPGKGLKWMGWINTYSGVPTYADDFKGRFAFSLETSASTAYLQINNLKIEDTATYFCARHYYGSHYFDYWGQGTTLTVSS
VL: DIMMTQSPSSLAMSVGQKVTLRCKSSQSLLNSSNQKNYLAWYQQKPGQSPKLLVYFASTRESGVPVRFIGSGSGTDFTLTISSMQAEDLADYFCQQHYFSPLTFGAGTKLELK
notes: as for B4
Consider B6, for which the EC50/EC50WTprot amounted to 1.42 fold in [7], 1.44 fold in assay [8] and 1.26 fold in assay [9]. Besides, the “% binding of analyte mAb” value in assay [10] came to 104%.

B7: 19N05 (antibody, V domains shown)
VH: QIQLVQSGPELKKPGETVKISCKASGYTFTTYGMSWVKQAPGKGLKWMGWINTYSGVPTFADDFKGRFAFSLETSASTAYLQINNLKNEDTATFFCARNYYGNHYFDYWGQGTTLTVSS
VL: DVQITQSPSYLAASPGETISINCRASNNINKYLAWYQEKPGKTNKLLIYSGSTLQSGIPSRFSGSGSGTDFTLTISSLEPEDFAMYHCQQHNYYPLTFGAGTKLELK
notes: as for B4
In the case of B7, the results for the EC50/EC50WTprot in [7], in assay [8] and in assay [9] were 1.39 fold, 1.43 fold and 1.34 fold, respectively. For the same molecule, the “% binding of analyte mAb” value in assay [10] amounted to 125%.

B8: 16L15 (antibody, V domains shown)
VH: DVKLVESGGGLVKLGGSLKLSCAASGFTFSSYYMSWVRQTPEKRLEWVATISNGGGSTYYPDSVKDRFTISRDNAKNTLYLQMSSLNSEDTAVYYCAKPLYYSNPWFAYWGQGTLVTVSA
VL: DVLLTQTPLSLPVSLGDQASISCRSSQSIVHSNGNTYLEWYLQKPGQSPKLLIYKVSNRFSGVPDRFSGSGSGTDFTLKISRVEAEDLGVYYCFQGSHVPRTFGGGTKLEIK
notes: as for B4
The molecule B8 returned an EC50 in [11] of 8.83 nM. This lies in the single-digit nanomolar range.

B9: 9F9 (antibody, V domains shown)
VH: EVQLVETGGGLVQPKGSLKLSCAASGFTFNTNAMNWVRQAPGKGLEWVARIRSKSNNYATYYADSVKDRFTISRDDTQSMIYLQMNNLKTEDTGMYYCVRGGSYWYFDVWGAGTTVTVSS
VL: DVLMTQTPLSLPVSLGDQASISCRSSQSIVNSNGNTYLEWYLQKPGQSPKLLIYKVSNRFSGVPDRFSGSGSGTDFTLKISRVEAEDLGVYYCFQGSHVPWTFGGGTKLEIK
notes: Control anti-PSGL-1 mAb, recombinant; only variable domains given; also called 9F6
B9: a half-maximal response in assay [11] (EC50) required 1.72 nM. Against the preceding molecule, the EC50 is about 5.1-fold lower.

B10: 03D07 (antibody, IgG4, V domains shown)
VH: EVKLLESGGGLVQPGGSLRLSCAASGFTFSSYALSWVRQAPGKGLEWVSAISGSGGNTYYADSVKGRFTISRDNSKNTLYLQMNSLRAEDTAVYYCAKVVGATNYWGQGTLVTVSS
VL: DIVMTQTPLSLPVTLGQPASISCRSSQSLVYSDGHTYLSWFHQRPGQSPRRLIYKVSIRDSGVPDRFSGSGSGTDFTLKISRVEAEDVGVYYCMQRLQIPLTFGGGTKVEIK
In [12], B10 returned a half-maximal effective concentration (EC50) above 3000 nM. In addition, the “EC50/EC50 3x(SO3)Y” value in assay [3] was around 5 fold; in assay [4], above 100 fold; in assay [5] it was 1 fold; in assay [6], 25 fold.

The term EC50 denotes the concentration that produces a half-maximal response.
